Source: the nanobody polyreactivity screen of Harvey et al. (2022)

Assay: yeast display, Sf9 membrane polyspecificity reagent, FACS + sequencing; frameworks hold sequencing errors
Outline: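 Nanobodies from a synthetic yeast display library (Saccharomyces cerevisiae BJ5465), induced 36–48 hours with galactose, were stained 1 hour at 4 °C with 10% biotinylated, detergent-solubilized Sf9 membrane reagent, enriched on streptavidin microbeads, then FACS-sorted. Anti-HA (expression) and streptavidin (reagent binding) fluorescence set low and high (top ~1%) gates. Polyreactivity labels come from the gate of origin. Genes were colony-PCR amplified, MiSeq 2 × 250 sequenced and filtered by CDR length.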

Row | Sequence | polyreactivity (PSR sort gate)
1 | QVQLVESGGGLVQAGGSLRLSCAASGRIIYYAMGRYRQAPGKERELVAAITRNGGTYADSVKGRFTISRDNSKNTVYLPMISLKAEDSAVYYCNADPDFGDDYWGQGTQVTVSS | low polyreactivity
2 | QVQLVESGGGLVQAGGSLRLSCAASGRILAANAMGWYRQAPGKERELVAAISWSGGRTYYADSVKGRFTISRDNAKNTVYLQMNSLKPEDTAVYYCNKLALAGYDYWGQGTQVTVSS | high polyreactivity
3 | QVQLVESGGGLVQAGGSLRLSCAASGRILADNAMGWYRQAPGKERELVAAISESGGSTYYADSVKGRFTISRDNAKNTVYLQMNSLKAEDTAVYYCAADTASIYYEYYYWGQGTQVTVSS | low polyreactivity
4 | QVQLVESGGGLVQAGGSLRLSCAASGRILDKYAMGWYRPAPGKERELVARIRFSGGDTYADSVKGRFTISRDNAKNTVYLQMNSLKPEDTAVYYCNKDRRNRWDAFDYWGQGTQVTVSS | low polyreactivity
5 | QVQLVESGGGLVQAGGSLRLSCAASGRILDYYAMGWYRQAPGKERELVAAIRRRGVITYADSVKGRFTISRDNAKNTVYLQMNSLKPEDTAVYYCAAGGYEYGYWGQGTQVTVSS | low polyreactivity
6 | QVQLVESGGGLVQAGGSLRLSCAASGRILEGYAMGWYRQAPGKEELVAAITSDASTYYADSVKGRFTMSRDNAKNTVYLQINSLKPEDTAVYYCAADTYDNDYYYWGQGTLVTVSS | high polyreactivity
7 | QVQLVESGGGLVQAGGSLRLSCAASGRILGAYAMGWYRQAPGKERELVASISSGGRTYYADSVKGRFTISRDNAKNTVYLQMNSLKPEDTAVYYCAAYVYTSFLYYYWGQGTQVTVSS | high polyreactivity
8 | QVQLVESGGGLVQAGGSLRLSCAASGRILGFYAMGWYRQAPGKEMELVARINWSGTRTYYADSVKGRFTISRDNAKNTVYLQMNSLKPEDTAVYYCAAERYPYGVTYSKLDYWGQGTQVTVSS | high polyreactivity
9 | QVQLVESGGGLVQAGGSLRLSCAASGRILGFYAMGWYRQAPGKERELDARINWSGTRTYYADSVKGRFTISRDNAKNTVYLQMNSLKPEDTAVYYCAAERYPYGVTYSKLDYWGQGTQVTVSS | high polyreactivity
10 | QVQLVESGGGLVQAGGSLRLSCAASGRILGGNAMGWYRQAPGKERELVAAITSGGTTNYADSVKGRFTISRDNAKNTVYLQMNSLKPEDTAVYYCNADWTDGDWADMDYWGQGTQVTVSS | low polyreactivity
11 | QVQLVESGGGLVQAGGSLRLSCAASGRILIGYTMGWYRQAPGTERELVARNNYSGGSTYYADSVKGRFTISRDISKNTVYLQMNSLKPEESGDYYCAADVRRGYYTWPPRRVYYWGQGTQVTVSS | high polyreactivity
12 | QVQLVESGGGLVQAGGSLRLSCAASGRILIHYAMRWYRQAPGKERELVAAIDNSVSTYYADSVKGRFTISRDNAKNTVYLQMNSLKPEDTAVYYCAADHWTHSVWGSGYKYYYWGQGTQVTVSS | high polyreactivity
13 | QVQLVESGGGLVQAGGSLRLSCAASGRILKSYAMGWCRHAPGKERELVAAIRSGGSTYYADSVKGRFTISRDNAKNTVYLQMYSLKPEDTAVYYCNRVTRTWKVNYHYWGQGTQVTVSS | high polyreactivity
14 | QVQLVESGGGLVQAGGSLRLSCAASGRILKWYAMGWYRQAPGKERELVAAISARGGSTFYADSVKGRFTISRDNAKNTVYLQMNSLKPEDTAVYYCNTYYRGGPYDVAYDYWGQGTEVTVSS | high polyreactivity
15 | QVQLVESGGGLVQAGGSLRLSCAASGRILLGNVMGWYRQAPGKERELVAAISIGGNTNYADSVKGRFTISRDNANNTVYLQMNSLKPEDTAVYYCNARSLVFPITFWEYDYWGEGTQVTVSS | low polyreactivity
16 | QVQLVESGGGLVQAGGSLRLSCAASGRILNYNAMGWYRQAPGKERELVAAITSSGGSTYYADSVKGRFTISRDNAKNTVYLQMNSLKPEDTAVYYCNALITYSSDYWGQGTQVTVSS | low polyreactivity
17 | QVQLVESGGGLVQAGGSLRLSCAASGRILPFNAMGWYRQAPGKERELVAAIRWRGSSTYYADSVKGRFTISRDIAKNTVYLQMNSLKPEDTAVYYCAAPSSVRGKVISAYYGYWGQGTQVTVSS | high polyreactivity
18 | QVQLVESGGGLVQAGGSLRLSCAASGRILPFYAMGWYRQAPGKERELVATISWTSDSTYYADSVKGRFTISRDNAKNTVYLQMNSLKPEDTAVYYCAREYTYTYASTVIYDHWGQGTQVTVSS | low polyreactivity
19 | QVQLVESGGGLVQAGGSLRLSCAASGRILRGNAMGWYRQAPGKERELVADINYSDGSTYYADSVKGRFTISRDNAKNTVYLQMNSLKPEDTAVYYCAADLRITSYNSWGHGTQVTVSS | low polyreactivity
20 | QVQLVESGGGLVQAGGSLRLSCAASGRILRRNTMGWYRQAPGKERELVATITRGGGNTYADSVKGRFTISRDNAKNTVYLQMNSLKPEDTAVYYCARAYGSYDYWGQGTQVTVSS | high polyreactivity
21 | QVQLVESGGGLVQAGGSLRLSCAASGRILRSYAMGWYRQAPGKERELVAAISWRGGSTYYADSVKGRFTISRDNAKNTVYLQMNSLKPEDTAVYYCAKRSYYPARYDYWGQGTQVTVSS | high polyreactivity
22 | QVQLVESGGGLVQAGGSLRLSCAASGRILSEYPMGWYRQARGKERELVAAITISDGSTYYADSVKGRFTISRDNAKNTVYLQMNSVNPDDTAVYYCAADSYDYNPAYLFCYKYYYWGQGSQVTVSS | low polyreactivity

Row | Sequence | polyreactivity (PSR sort gate)
23 | QVQLVESGGGLVQAGGSLRLSCAASGRILSVYAMGWYRQAPGKERELVAAIEYSGGSTNYADSVKGRFTISRDNAKHTVYLQMNSLKPEDTAVYYCNREGGAIAWRYLLEYLYSWGQGTQVTVSS | low polyreactivity
24 | QVQLVESGGGLVQAGGSLRLSCAASGRILSYYAMGWYRQAPGKERELVATISASGGSTFYADSVKGRFTISRDNAKNTVYLQMNSLKPEDTAVYYCNAYWGRRVQRDYWGQGTQVTVSS | high polyreactivity
25 | QVQLVESGGGLVQAGGSLRLSCAASGRILTFYGLGWYRQAPGKERELVAAISNGGSTYYADSVKGRFTISRDNAKNTVYLQMNSLKPEDTAVYYCAKRILTAPRRNSGYDYWGQGTQVTVSS | low polyreactivity
26 | QVQLVESGGGLVQAGGSLRLSCAASGRILVPNAMGWYRQAPGKERELVATITSSGSTYADSVKGRFTISRDNAKNTVYLQMNSLKPEDTAVYYCAAKYTGSFINYGLWGTYFEDDYWGQGTQVTVSS | low polyreactivity
27 | QVQLVESGGGLVQAGGSLRLSCAASGRILVYYAMGWYRQAPGKEREFVAAISQRGGSTYYADSVKGRFTISRDNAKNTVYLQMNSLKPEDTAVYYCATRPIQYRRGYDYWGQGTQVTVSS | high polyreactivity
28 | QVQLVESGGGLVQAGGSLRLSCAASGRILWSYAMGWYRQAPGKERELVASISGRGGSTYYADSVKGRFTISRDNAKNTVYLQMNSLKPEDTAVYYCAAYRLRFWSMDYWGQGTQVTVSS | high polyreactivity
29 | QVQLVESGGGLVQAGGSLRLSCAASGRILYGYAMGWYRQAPGTERELVASLSSGGRTYYADSVKGRFTISRDNAKNTVYLQMNSLKPEDTAVYYCAAVAYGNWYRYYYWGQGTQVTVSS | high polyreactivity
30 | QVQLVESGGGLVQAGGSLRLSCAASGRILYGYVMGWYRQAPGKERELVAAISWSGARTYYADSVKGRFTISRDNAKNTVYLQMNSLKPEDTAVYYCAARVPSWKYDYWGQGTQVTVSS | high polyreactivity
31 | QVQLVESGGGLVQAGGSLRLSCAASGRILYHYAMGWYRQAPGKERELVAAITFSGDTTYYADSVKGRFTISRDNAKNTVYLQMNSLKPVDTAVYYCNTVYYWNYVSRLYDYWGQGTQVTVSS | high polyreactivity
32 | QVQLVESGGGLVQAGGSLRLSCAASGRILYLNAMGWYRQAPGKERELVAAITRRAGSTRYADSVKGRFTISRDNAKNTVYLQMNSLKPEDTAVYYCAVAYYRNRMDYWGQGTQVTVSS | high polyreactivity
33 | QVQLVESGGGLVQAGGSLRLSCAASGRILYPYAMGWYRQAPGKERELVASISWSGGRTYYADSVKGRFTISRDHAKYTVYLQMNSLKPEDTAVYYCAATFSYSSYIYDYWGQGTQVTVSS | high polyreactivity
34 | QVQLVESGGGLVQAGGSLRLSCAASGRILYQYAMGWYRQAPGKERELVASISGRSGRTRYADSVKGRFTISRDNAKNTVYLQMNSLKPEDTAVYYCNAGSSVLKYDYWGQGTQVTVSS | low polyreactivity
35 | QVQLVESGGGLVQAGGSLRLSCAASGRILYQYAMGWYRQAPGKVRELVASISGRSGRTRYADSVKGRFTISRDIAKNTVSLQMNSLKPEDTAVYYCYAGTSVLKYDYWGQGTQVTVSS | low polyreactivity
36 | QVQLVESGGGLVQAGGSLRLSCAASGRILYSYAMGWYRQAPGKEREFVAAIRRSGGSTYYADSVKGRFSISRDNAKNTVYLQMNSLKPEDTAVYYCAAGRRYSGSYDYWGQGTQVTVSS | high polyreactivity
37 | QVQLVESGGGLVQAGGSLRLSCAASGRILYSYAMGWYRQAPGKERELVAAISSTGSTYYADSVKGRFTISRDNAKNTVYLQMNSLKPEDTAVYYCAATFYPYQVHHYYYWGQGTQVTVSS | low polyreactivity
38 | QVQLVESGGGLVQAGGSLRLSCAASGRILYTYAMGWYRQAPGKERELVASIRSSGGITYYADSVKGRFTISRDNAKNTVYLQMNSLKPEDTAVYYCNAPYLVGTGPNGEYDYWGQGTEVTVSS | high polyreactivity
39 | QVQLVESGGGLVQAGGSLRLSCAASGRILYWYTMGWYRQAPGKERELVAAITDSVGRTYYADSVKGRFTISRDNAKNTVYLQMNSLKPEDTAVYYCNADPYAQQPYSYYYGYDYWGQGTQVTVSS | low polyreactivity
40 | QVQLVESGGGLVQAGGSLRLSCAASGRILYYYAMGWYRQAPGKERELVAAISGSAGTTYYADSVKGRFTISRDNAKNPVYLQMNSLKPEDTAVYYCSKYYPYIQADYGYDYWGQGTQVSVSS | low polyreactivity
41 | QVQLVESGGGLVQAGGSLRLSCAASGRILYYYAMGWYRQAPGKERELVAGITTDDSTNYADSVKGRFTISRDNAKNTVYFQMNSLKPEDTAVYYCAAKYVHGEYDYWGQGTQVTVSS | low polyreactivity
42 | QVQLVESGGGLVQAGGSLRLSCAASGRIQDINAMGWYRQAPGKERELVAAISYGGGTTYYADSVKGRFTISRDNAKNTVYLQMNSLKPEDTAVYYCAKDGYFPEFDYWGQGTQVTVSS | high polyreactivity
43 | QVQLVESGGGLVQAGGSLRLSCAASGRIRFNVMGWYRQAPGKERELVAAITGGGTTYYADSVKGRFTISRDNAKNTVYLQMNSLKPEDTAVYYCAARALYSRINQIPSYYWGQGTQVTVSS | high polyreactivity
